Results on 14 molecules are retold here after patent US12252531B2, “Methods of screening for high-affinity, isoform-selective TGFβ1 inhibitors” (Scholar Rock, Inc., priority 2018, dated 2025).

The conditions of series [1]: in vivo, cited from earlier work.
The target in series [2] is Matrix-associated proTGFb1 (hLTBP1, hLTBP3). In words: BLI (OCTET), average over matrix-associated complexes. It is filed as binding, human. The settings on record: average KD of (B) and (C), read-out: (D) ECM AVRG. The text has this:
(§1) Column (A) of the table lists monoclonal antibodies with discrete amino acid sequences. […] Columns (B), (D), (E) and (F) provide affinities of each of the listed antibodies, measured in KD. […] Average KD values of (B) and (C) are shown in the corresponding column (D), which collectively represents affinities of the antibodies to ECM- or matrix-associated proTGFβ1 complexes. Similarly, Average KD values of (E) and (F) are shown in the corresponding column (G), which collectively represents affinities of the antibodies to cell-surface or cell-associated proTGFβ1 complexes. Finally, relative ratios between the average KD values from columns (D) and (G) are expressed as “fold bias” in column (H). Thus, the greater the number of column (H) is, the greater bias exists for the particular antibody, when comparing binding preferences of the antibody for matrix-associated complexes and cell-surface complexes. This is one way of quantitatively representing and comparing inherent bias of antibodies to their target complexes. Such analyses may be useful in guiding the selection process for a candidate antibody for particular therapeutic use.
(§2) The concept of “uniformity” or lack of bias is further illustrated in Table 8. Average KD values between the two matrix-associated and cell-associated complexes are calculated, respectively (see columns (D) and (G)). These average KD values can then be used to ask whether bias in binding activities exists between complexes associated with matrix vs. complexes associated with cell surface (e.g., immune cells). Bias may be expressed as “fold-difference”in the average KD values, as illustrated in Table 8.

In series [3] the test system is Cell-associated proTGFb1 (hGARP, hLRRC33). In words: BLI (OCTET), average over cell-associated complexes. It is filed as binding, human. To be noted: average KD of (E) and (F), read-out: (G) Cell AVRG.
Text: as §1, §2

Series [4] has as its system LTBP1-proTGFβ1, LTBP3-proTGFβ1, GARP-proTGFβ1 and LRRC33-proTGFβ1 complexes. In words: BLI (OCTET), binding profile and bias across the four complexes. Further details: species or system human. To be noted: ratio of average KD cell-associated / matrix-associated.
Text: as §1, §2

The target of series [5] is Matrix-associated proTGFβ1 (hLTBP1, hLTBP3). In words: MSD-SET, average over matrix-associated complexes. It is filed as binding, human. The settings on record: average of (B) and (C), read-out: (D) ECM AVRG.
Text: as §1
(§3) Solution equilibrium titration (“SET”) is an assay whereby binding between two molecules (such as an antigen and an antibody that binds the antigen) can be measured at equilibrium in a solution. For example, Meso-Scale Discovery (“MSD”)-based SET, or MSD-SET, is a useful mode of determining dissociation constants for particularly high-affinity protein-protein interactions at equilibrium (see, for example: Ducata et al. (2015) J Biomolecular Screening 20(10): 1256-1267). The SET-based assays are particularly useful for determining KD values of antibodies with sub-nanomolar (e.g., picomolar) affinities.

Series [6] deals with Cell-associated proTGFβ1 (hGARP, hLRRC33). Description: MSD-SET, average over cell-associated complexes. It is filed as binding, human. The settings on record: average of (E) and (F), read-out: (G) Cell AVRG.
Text: as §1, §3

For series [7], the system named is hLTBP1-proTGFβ1, hLTBP3-proTGFβ1, hGARP-proTGFβ1 and hLRRC33-proTGFβ1. In words: MSD-SET, binding profile and bias across the four human LLCs. To be noted: ratio of average KD cell-associated / matrix-associated.
Text: Solution Equilibrium Titration (SET): The SET is an assay whereby binding between two molecules (such as an antigen and an antibody that binds the antigen) can be measured at equilibrium in a solution. For example, Meso-Scale Discovery (“MSD”)-based SET, or MSD-SET, is a useful mode of determining dissociation constants for particularly high-affinity protein-protein interactions at equilibrium, such as picomolar-affinity antibodies binding to their antigens (see, for example: Ducata et al. (2015) J Biomolecular Screening 20(10): 1256-1267). The SET-based assays are particularly useful for determining KD values of antibodies with sub-nanomolar (e.g., picomolar) affinities.
as §3
For solution equilibrium titration-based binding assays, protein complexes that comprise one of the presenting molecules such as those shown above may be employed as antigen (presenting molecule-TGFβ1 complex, or an LLC). Test antibodies are allowed to form antigen-antibody complex in solution. Antigen-antibody reaction mixtures are incubated to allow an equilibrium to be reached; the amount of the antigen-antibody complex present in the assay reactions can be measured by suitable means well known in the art. As compared to BLI-based assays, SET-based assays are less affected by on/off rates of the antigen-antibody complex, allowing sensitive detection of very high affinity interactions.

Positions count from the first letter of the chain named.

Turning to “GC1008: human analog of 1D11, pan-TGFβ antibody”, in series [1] (human), the “Exposure: DN Cmax” value is “DN Cmax~(350 ng/mL)mg”. Also, the “previously reported adverse events (CTCAE grade)” value in series [1] is “leukocytosis (grade 3), fatigue (grade 3), hypoxia (grade 3), asystole (grade 5), leukopenia (grade 1), recurrent, transient, tender erythematous, nodular skin lesions, suppurative dermatitis, and herpes zoster”.

B1: Ab21: proTGFβ1 antibody; VH SEQ ID NO: 129, VL SEQ ID NO: 15 (antibody, V domains shown)
VH: EVQLVESGGGLVQPGGSLRLSCAASGFTFSSFSMDWVRQAPGKGLEWVSYISPDASTIYYADSVKGRFTISRDNAKNSLYLQMNSLRAEDTAVYYCARGVLDYGDMLDPWGQGTLVTVSS
VL: DIQMTQSPSSLSASVGDRVTITCQASQDITNYLNWYQQKPGKAPKLLIYDASNLETGVPSRFSGSGSGTDFTFTISSLQPEDIATYYCQQADNHPPWTFGGGTKVEIK
Take B1: the Kd in series [2] stood at 0.246 nM; in series [3] it was 0.644 nM. Moreover, the “(H) G/D (fold bias)” value in series [4] is listed as 2.613 fold.

B2: Ab32: proTGFβ1 antibody; VH SEQ ID NO: 140, VL SEQ ID NO: 15 (antibody, V domains shown)
VH: B1 VH with D35N, D54S, S56D, S78T, L101W, Y103M
VL: B1 VL
On to B2, for which the Kd turned out to be 0.242 nM in series [2], 0.597 nM in series [3], 0.032 nM in series [5] and 0.051 nM in series [6]. In addition, the “(H) G/D (fold bias)” value is on record as 2.467 fold in series [4] and 1.60 fold in series [7].

B3: Ab28: proTGFβ1 antibody; VH SEQ ID NO: 136, VL SEQ ID NO: 15 (antibody, V domains shown)
VH: B1 VH with A97V
VL: B1 VL
As for B3, the values for the Kd in series [2] and in series [3] were 0.328 nM and 0.603 nM, respectively. For the same molecule, the “(H) G/D (fold bias)” value in series [4] is 1.838 fold.

B4: Ab30: proTGFβ1 antibody; VH SEQ ID NO: 138, VL SEQ ID NO: 15 (antibody, V domains shown)
VH: B1 VH with V100T
VL: B1 VL
On to B4, for which the Kd was found to be 0.296 nM in series [2], 0.684 nM in series [3], 0.029 nM in series [5] and 0.081 nM in series [6]. Moreover, the “(H) G/D (fold bias)” value is listed as 2.307 fold in series [4] and 2.80 fold in series [7].

B5: Ab24: proTGFβ1 antibody; VH SEQ ID NO: 132, VL SEQ ID NO: 15 (antibody, V domains shown)
VH: B1 VH with G16R, S33A, D35Y
VL: B1 VL
As for B5, the Kd in series [2] came out at 0.222 nM; in series [3] it was 0.537 nM; in series [5], 0.023 nM; in series [6], 0.1 nM. For the same molecule, the “(H) G/D (fold bias)” value in series [4] is 2.421 fold; in series [7] it was 4.35 fold.

B6: Ab27: proTGFβ1 antibody; VH SEQ ID NO: 135, VL SEQ ID NO: 15 (antibody, V domains shown)
VH: B1 VH with S31F, F32Y, S33A, D35N
VL: B1 VL
B6: the Kd in series [2] was determined as 0.208 nM; in series [3], 0.361 nM. The “(H) G/D (fold bias)” value in series [4] was 1.738 fold.

B7: Ab29: proTGFβ1 antibody; VH SEQ ID NO: 137, VL SEQ ID NO: 15 (antibody, V domains shown)
VH: B1 VH with G16R, S33A, D35N, D62G, A97V, G99A
VL: B1 VL
Take B7: the results for the Kd in series [2], in series [3] and in series [6] were 0.155 nM, 0.304 nM and 0.024 nM, respectively. Also, the “(H) G/D (fold bias)” value in series [4] amounted to 1.965 fold; in series [7], 2.00 fold.

B8: Ab26: proTGFβ1 antibody; VH SEQ ID NO: 134, VL SEQ ID NO: 15 (antibody, V domains shown)
VH: B1 VH with S78T
VL: B1 VL
For the molecule B8, the Kd is 0.197 nM in series [2], 0.492 nM in series [3], 0.026 nM in series [5] and 0.072 nM in series [6]. Further, the entries for the “(H) G/D (fold bias)” value in series [4] and in series [7] were 2.500 fold and 2.77 fold, respectively.

B9: Ab22: proTGFβ1 antibody; VH SEQ ID NO: 130, VL SEQ ID NO: 15 (antibody, V domains shown)
VH: B1 VH with S30G, D35N, S52H, P53S
VL: B1 VL
Take B9: the Kd in series [2] was 0.324 nM; in series [3], 0.695 nM; in series [5], 0.042 nM; in series [6], 0.114 nM. In addition, the “(H) G/D (fold bias)” value in series [4] was 2.147 fold; in series [7], 2.71 fold.

B10: Ab33: proTGFβ1 antibody; VH SEQ ID NO: 141, VL SEQ ID NO: 15 (antibody, V domains shown)
VH: B1 VH with D35N, D54S, S56D, S78T, R98H
VL: B1 VL
On to B10, for which the Kd in series [2] came to 0.145 nM; in series [3], 0.302 nM; in series [5], 0.009 nM; in series [6], 0.027 nM. In addition, the results for the “(H) G/D (fold bias)” value in series [4] and in series [7] were 2.083 fold and 3.00 fold, respectively.

B11: Ab25: proTGFβ1 antibody; VH SEQ ID NO: 133, VL SEQ ID NO: 15 (antibody, V domains shown)
VH: B1 VH with S30G
VL: B1 VL
Regarding B11, the Kd was found to be 0.184 nM in series [2] and 0.449 nM in series [3]. Also, the “(H) G/D (fold bias)” value in series [4] turned out to be 2.431 fold.

B12: Ab23: proTGFβ1 antibody; VH SEQ ID NO: 131, VL SEQ ID NO: 15 (antibody, V domains shown)
VH: B1 VH with D35N, D54S, S56D, S78T
VL: B1 VL
With B12, the Kd in series [2] is 0.443 nM; in series [3], 0.897 nM. Further, the “(H) G/D (fold bias)” value in series [4] was 2.028 fold.

B13: Ab31: proTGFβ1 antibody; VH SEQ ID NO: 139, VL SEQ ID NO: 15 (antibody, V domains shown)
VH: B1 VH with S78T, G99A
VL: B1 VL
B13: the Kd in series [2] came to 0.208 nM; in series [3], 0.495 nM; in series [5], 0.017 nM; in series [6], 0.058 nM. In addition, the “(H) G/D (fold bias)” value in series [4] is listed as 2.376 fold; in series [7] it was 3.41 fold.
